One protein from patent US20110263000 can be followed below.

The target of data set [1] is T1, human fibrinogen, P02671.
T1 chain 1: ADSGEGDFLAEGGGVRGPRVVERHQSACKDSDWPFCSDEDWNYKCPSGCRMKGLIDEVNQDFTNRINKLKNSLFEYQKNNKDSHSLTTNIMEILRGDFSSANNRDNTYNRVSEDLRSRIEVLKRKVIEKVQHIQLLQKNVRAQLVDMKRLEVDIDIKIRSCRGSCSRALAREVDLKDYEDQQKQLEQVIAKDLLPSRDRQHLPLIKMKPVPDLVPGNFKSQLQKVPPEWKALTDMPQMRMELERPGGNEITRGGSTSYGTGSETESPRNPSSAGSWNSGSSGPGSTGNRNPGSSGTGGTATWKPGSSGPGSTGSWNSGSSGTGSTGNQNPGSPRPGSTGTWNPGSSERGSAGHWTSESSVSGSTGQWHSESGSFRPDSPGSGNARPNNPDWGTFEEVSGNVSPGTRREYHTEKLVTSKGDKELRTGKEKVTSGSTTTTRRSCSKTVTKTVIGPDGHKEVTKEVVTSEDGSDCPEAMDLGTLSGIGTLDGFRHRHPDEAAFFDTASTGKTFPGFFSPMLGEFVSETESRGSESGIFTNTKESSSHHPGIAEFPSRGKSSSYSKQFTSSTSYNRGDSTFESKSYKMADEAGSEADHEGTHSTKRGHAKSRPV
T1 chain 2: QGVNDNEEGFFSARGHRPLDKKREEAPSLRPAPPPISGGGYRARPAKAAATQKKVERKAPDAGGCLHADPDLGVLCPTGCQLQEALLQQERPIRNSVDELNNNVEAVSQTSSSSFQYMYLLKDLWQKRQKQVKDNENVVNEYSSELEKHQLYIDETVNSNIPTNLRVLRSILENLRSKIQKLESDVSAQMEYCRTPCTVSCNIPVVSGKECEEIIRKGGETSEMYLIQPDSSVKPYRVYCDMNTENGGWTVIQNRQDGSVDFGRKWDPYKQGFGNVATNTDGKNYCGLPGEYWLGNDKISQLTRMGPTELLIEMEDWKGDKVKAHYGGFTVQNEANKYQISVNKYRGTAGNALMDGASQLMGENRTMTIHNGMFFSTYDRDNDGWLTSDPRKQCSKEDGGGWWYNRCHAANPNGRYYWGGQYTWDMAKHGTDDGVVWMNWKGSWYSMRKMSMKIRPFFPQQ
T1 chain 3: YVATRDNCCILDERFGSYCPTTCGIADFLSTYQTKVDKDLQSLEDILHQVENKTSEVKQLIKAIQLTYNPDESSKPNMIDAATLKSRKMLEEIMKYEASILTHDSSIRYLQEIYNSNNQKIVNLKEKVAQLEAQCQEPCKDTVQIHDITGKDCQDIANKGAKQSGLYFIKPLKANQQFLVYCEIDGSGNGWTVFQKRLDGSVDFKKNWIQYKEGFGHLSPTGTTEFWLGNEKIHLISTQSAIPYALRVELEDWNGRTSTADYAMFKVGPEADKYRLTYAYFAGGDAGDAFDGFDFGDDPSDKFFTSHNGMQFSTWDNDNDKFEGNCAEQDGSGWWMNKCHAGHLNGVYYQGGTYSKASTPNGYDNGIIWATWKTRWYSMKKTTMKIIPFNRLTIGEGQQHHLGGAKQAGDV

The target of data set [2] is T2, bovine fibrinogen (Sigma Company), P02672.
T2 chain 1: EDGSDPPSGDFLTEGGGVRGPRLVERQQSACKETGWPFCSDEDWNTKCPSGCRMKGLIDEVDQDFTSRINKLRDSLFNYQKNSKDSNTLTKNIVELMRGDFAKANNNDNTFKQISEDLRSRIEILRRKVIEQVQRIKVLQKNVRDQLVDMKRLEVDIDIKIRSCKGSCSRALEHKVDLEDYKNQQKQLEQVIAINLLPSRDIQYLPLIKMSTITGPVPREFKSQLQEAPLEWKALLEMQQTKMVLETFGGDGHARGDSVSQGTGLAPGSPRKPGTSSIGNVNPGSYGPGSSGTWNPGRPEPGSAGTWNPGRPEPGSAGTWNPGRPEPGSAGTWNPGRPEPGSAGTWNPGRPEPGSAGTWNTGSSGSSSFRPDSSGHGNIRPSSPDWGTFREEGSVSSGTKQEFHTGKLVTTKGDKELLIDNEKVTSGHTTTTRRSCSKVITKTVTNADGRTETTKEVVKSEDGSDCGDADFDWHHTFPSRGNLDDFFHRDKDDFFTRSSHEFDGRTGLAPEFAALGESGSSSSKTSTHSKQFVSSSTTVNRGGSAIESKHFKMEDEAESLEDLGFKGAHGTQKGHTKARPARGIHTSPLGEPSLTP
T2 chain 2: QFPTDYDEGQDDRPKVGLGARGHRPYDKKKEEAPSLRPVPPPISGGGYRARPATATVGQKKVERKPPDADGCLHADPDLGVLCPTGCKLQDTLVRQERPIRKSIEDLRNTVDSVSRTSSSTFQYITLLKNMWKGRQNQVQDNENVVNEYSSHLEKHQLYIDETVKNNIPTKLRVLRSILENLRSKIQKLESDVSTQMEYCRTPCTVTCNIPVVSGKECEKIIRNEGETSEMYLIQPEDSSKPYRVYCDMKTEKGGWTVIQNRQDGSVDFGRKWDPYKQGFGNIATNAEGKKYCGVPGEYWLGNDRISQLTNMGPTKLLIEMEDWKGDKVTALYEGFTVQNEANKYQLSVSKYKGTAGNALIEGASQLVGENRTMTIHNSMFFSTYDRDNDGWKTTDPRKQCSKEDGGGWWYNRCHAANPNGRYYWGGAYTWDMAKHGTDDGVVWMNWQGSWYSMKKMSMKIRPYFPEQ
T2 chain 3: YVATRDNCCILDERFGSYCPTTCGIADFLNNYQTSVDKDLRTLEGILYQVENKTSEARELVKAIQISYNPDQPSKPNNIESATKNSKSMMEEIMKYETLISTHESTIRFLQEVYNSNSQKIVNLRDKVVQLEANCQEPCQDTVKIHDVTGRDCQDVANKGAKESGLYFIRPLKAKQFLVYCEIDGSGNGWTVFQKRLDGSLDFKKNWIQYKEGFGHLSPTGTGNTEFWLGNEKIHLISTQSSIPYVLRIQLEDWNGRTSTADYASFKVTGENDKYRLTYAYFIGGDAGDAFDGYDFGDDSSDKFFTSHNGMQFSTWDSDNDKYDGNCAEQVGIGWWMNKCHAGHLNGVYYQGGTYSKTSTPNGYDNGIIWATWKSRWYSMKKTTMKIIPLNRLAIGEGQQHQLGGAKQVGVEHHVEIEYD

B1: hemocoagulase of Agkistrodon acutus (protein)
chain 1: DCSSGWSSYEGHCYKVFKQSKTWADAESFCTKQVNGGHLVSLESSGEADFVGQLLAQKLKSAKLHVWLGLRAQNKEKQCSLQWSDGSSLSYENWLEEESKKCLGVHLETGFHKWENFYCEQQDPFVCEA
chain 2: DCPSDWSSYEGHCYKPFNEPKNWADAENFCTKQHTGGHLVSFQSTEEADFVVKLAFQTFDYGLFWFGLSKLWNQCNWQWSNAAMLKYTDWAEESYCVYFKSTNNKWRSLTCRMLANFVCEFQA
Consider B1, for which the “hydrolysis of human fibrinogen, SDS-PAGE after 0.5 h, 1 h, 2 h and 4 h at 37° C.” value in data set [1] is “After the fibrinogen was treated with the hemocoagulase (1 unit) for 0.5 h and 1 h, the band of alpha subunit became gradually light, and after being treated for 2 h and 4 h, the band of alpha subunit disappeared completely”. For the same protein, in data set [2], the “Agglutination time (tube 1#, 10 µl distilled water added)” value came to 50 s; the “Agglutination time (tube 2#, 10 µl isopropanol added)” value worked out at 50 s; the “Agglutination time (tube 3#, 10 µl PMSF added)” value is on record as “more than 600 seconds”.
